Reference: patent US20190015483A1 (CSL BEHRING RECOMBINANT FACILITY, published 2019)

T1: recombinant Factor VIII (CSL627, rVIII-SingleChain) (Homo sapiens (Human), UniProt P00451 20-2351)
T1 construct: also called FVIII
T1 sequence: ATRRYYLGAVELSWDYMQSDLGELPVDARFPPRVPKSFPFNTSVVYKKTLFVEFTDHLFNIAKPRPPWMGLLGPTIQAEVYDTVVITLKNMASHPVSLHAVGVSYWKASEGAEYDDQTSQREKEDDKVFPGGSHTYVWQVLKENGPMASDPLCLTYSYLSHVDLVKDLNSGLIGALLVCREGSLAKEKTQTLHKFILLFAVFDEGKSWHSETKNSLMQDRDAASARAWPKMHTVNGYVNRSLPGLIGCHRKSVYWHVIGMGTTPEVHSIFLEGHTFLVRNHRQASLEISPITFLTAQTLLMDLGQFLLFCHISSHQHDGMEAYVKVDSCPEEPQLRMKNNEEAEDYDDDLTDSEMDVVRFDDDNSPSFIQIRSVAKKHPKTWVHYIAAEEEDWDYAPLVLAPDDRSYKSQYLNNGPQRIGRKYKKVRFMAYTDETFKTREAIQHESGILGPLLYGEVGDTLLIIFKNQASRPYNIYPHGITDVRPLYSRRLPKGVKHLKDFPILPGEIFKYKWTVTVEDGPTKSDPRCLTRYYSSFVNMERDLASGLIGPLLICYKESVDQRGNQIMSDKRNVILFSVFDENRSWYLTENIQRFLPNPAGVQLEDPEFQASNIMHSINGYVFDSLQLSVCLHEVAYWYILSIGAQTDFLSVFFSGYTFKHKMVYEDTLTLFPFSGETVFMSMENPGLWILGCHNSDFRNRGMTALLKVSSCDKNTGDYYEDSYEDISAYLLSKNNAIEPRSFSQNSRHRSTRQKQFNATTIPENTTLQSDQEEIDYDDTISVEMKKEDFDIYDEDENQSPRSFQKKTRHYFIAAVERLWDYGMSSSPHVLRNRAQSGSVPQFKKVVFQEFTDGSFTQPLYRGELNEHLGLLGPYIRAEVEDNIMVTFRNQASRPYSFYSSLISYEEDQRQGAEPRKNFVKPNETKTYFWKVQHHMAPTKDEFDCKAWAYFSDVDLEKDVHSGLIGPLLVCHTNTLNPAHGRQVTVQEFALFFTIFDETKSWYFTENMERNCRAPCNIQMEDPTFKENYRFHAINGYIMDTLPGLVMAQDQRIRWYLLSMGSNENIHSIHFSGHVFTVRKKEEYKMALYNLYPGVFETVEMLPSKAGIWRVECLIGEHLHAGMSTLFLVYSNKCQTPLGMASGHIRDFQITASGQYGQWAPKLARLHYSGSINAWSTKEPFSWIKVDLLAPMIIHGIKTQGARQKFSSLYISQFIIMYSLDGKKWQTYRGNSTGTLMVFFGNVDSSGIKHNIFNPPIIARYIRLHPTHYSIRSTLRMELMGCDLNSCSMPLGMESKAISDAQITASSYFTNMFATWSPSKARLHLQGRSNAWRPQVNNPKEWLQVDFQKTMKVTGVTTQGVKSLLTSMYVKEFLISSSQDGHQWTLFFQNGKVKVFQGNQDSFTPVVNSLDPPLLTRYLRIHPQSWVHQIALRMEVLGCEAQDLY


Target: T1, recombinant Factor VIII (CSL627, …)
Experiment: SPR, anti-His capture, FVIII injected, 37 C
Description: Binding kinetics were investigated by surface plasmon resonance using a Biacore 4000 biosensor at 37° C. Each mutant was captured from cell culture medium to a density of 40-150 RU on a CM-5 sensor chip pre-immobilised with anti-His antibody (14,000 RU). In an initial screening study, FVIII was injected over the captured mutants for 5 minutes at 1 nM and dissociation monitored for 5 minutes.
All sensorgrams were double referenced by subtraction of signals from a reference spot (containing only immobilised anti His antibody) and from a blank injection. Binding kinetics were determined by fitting the double referenced sensorgrams to a 1:1 kinetic model.

| Binder | binding result | Kd | koff | kon |
| --- | --- | --- | --- | --- |
| Hu-vWF[764-1270]-8His S766W-S806M (other) SLWCRPPMVKLVCPADNLRAEGLECTKTCQNYDLECMSMGCVMGCLCPPGMVRHENRCVALERCPCFHQGKEYAPGETVKIGCNTCVCRDRKWNCTDHVCDATCSTIGMAHYLTFDGLKYLFPGECQYVLVQDYCGSNPGTFRILVGNKGCSHPSVKCKKRVTILVEGGEIELFDGEVNVKRPMKDETHFEVVESGRYIILLLGKALSVVWDRHLSISVVLKQTYQEKVCGLCGNFDGIQNNDLTSSNLQVEEDPVDFGNSWKVSSQCADTRKVPLDSSPATCHNNIMKQTMVDSSCRILTSDVFQDCNKLVDPEPYLDVCIYDTCSCESIGDCACFCDTIAAYAHVCAQHGKVVTWRTATLCPQSCEERNLRENGYECEWRYNSCAPACQVTCQHPEPLACPVQCVEGCHAHCPPGKILDELLQTCVDPEDCPVCEVAGRRFASGKKVTLNPSDPEHCQICHCDVVNLTCEACQEPGGLVVPPTDAPVSPTTLYVEDISEPPLHDFHHHHHHHH |  | 0.425 nM | 0.000872 s⁻¹ | 2.05e+06 M⁻¹ s⁻¹ |
| Hu-vWF[764-1270]-8His S766W-S806N (other) SLWCRPPMVKLVCPADNLRAEGLECTKTCQNYDLECMSMGCVNGCLCPPGMVRHENRCVALERCPCFHQGKEYAPGETVKIGCNTCVCRDRKWNCTDHVCDATCSTIGMAHYLTFDGLKYLFPGECQYVLVQDYCGSNPGTFRILVGNKGCSHPSVKCKKRVTILVEGGEIELFDGEVNVKRPMKDETHFEVVESGRYIILLLGKALSVVWDRHLSISVVLKQTYQEKVCGLCGNFDGIQNNDLTSSNLQVEEDPVDFGNSWKVSSQCADTRKVPLDSSPATCHNNIMKQTMVDSSCRILTSDVFQDCNKLVDPEPYLDVCIYDTCSCESIGDCACFCDTIAAYAHVCAQHGKVVTWRTATLCPQSCEERNLRENGYECEWRYNSCAPACQVTCQHPEPLACPVQCVEGCHAHCPPGKILDELLQTCVDPEDCPVCEVAGRRFASGKKVTLNPSDPEHCQICHCDVVNLTCEACQEPGGLVVPPTDAPVSPTTLYVEDISEPPLHDFHHHHHHHH |  | 0.152 nM | 0.000585 s⁻¹ | 3.84e+06 M⁻¹ s⁻¹ |
| Hu-vWF[764-1270]-8His S766W-S806P (other) SLWCRPPMVKLVCPADNLRAEGLECTKTCQNYDLECMSMGCVPGCLCPPGMVRHENRCVALERCPCFHQGKEYAPGETVKIGCNTCVCRDRKWNCTDHVCDATCSTIGMAHYLTFDGLKYLFPGECQYVLVQDYCGSNPGTFRILVGNKGCSHPSVKCKKRVTILVEGGEIELFDGEVNVKRPMKDETHFEVVESGRYIILLLGKALSVVWDRHLSISVVLKQTYQEKVCGLCGNFDGIQNNDLTSSNLQVEEDPVDFGNSWKVSSQCADTRKVPLDSSPATCHNNIMKQTMVDSSCRILTSDVFQDCNKLVDPEPYLDVCIYDTCSCESIGDCACFCDTIAAYAHVCAQHGKVVTWRTATLCPQSCEERNLRENGYECEWRYNSCAPACQVTCQHPEPLACPVQCVEGCHAHCPPGKILDELLQTCVDPEDCPVCEVAGRRFASGKKVTLNPSDPEHCQICHCDVVNLTCEACQEPGGLVVPPTDAPVSPTTLYVEDISEPPLHDFHHHHHHHH |  | 0.133 nM | 0.000566 s⁻¹ | 4.26e+06 M⁻¹ s⁻¹ |
| Hu-vWF[764-1270]-8His S766W-S806Q (other) SLWCRPPMVKLVCPADNLRAEGLECTKTCQNYDLECMSMGCVQGCLCPPGMVRHENRCVALERCPCFHQGKEYAPGETVKIGCNTCVCRDRKWNCTDHVCDATCSTIGMAHYLTFDGLKYLFPGECQYVLVQDYCGSNPGTFRILVGNKGCSHPSVKCKKRVTILVEGGEIELFDGEVNVKRPMKDETHFEVVESGRYIILLLGKALSVVWDRHLSISVVLKQTYQEKVCGLCGNFDGIQNNDLTSSNLQVEEDPVDFGNSWKVSSQCADTRKVPLDSSPATCHNNIMKQTMVDSSCRILTSDVFQDCNKLVDPEPYLDVCIYDTCSCESIGDCACFCDTIAAYAHVCAQHGKVVTWRTATLCPQSCEERNLRENGYECEWRYNSCAPACQVTCQHPEPLACPVQCVEGCHAHCPPGKILDELLQTCVDPEDCPVCEVAGRRFASGKKVTLNPSDPEHCQICHCDVVNLTCEACQEPGGLVVPPTDAPVSPTTLYVEDISEPPLHDFHHHHHHHH |  | 0.407 nM | 0.00176 s⁻¹ | 4.33e+06 M⁻¹ s⁻¹ |

Now from value to binder:

| binding result | Kd | koff | kon | Binder |
| --- | --- | --- | --- | --- |
| no binding |  |  |  | Hu-vWF[764-1270]-8His S766W-S806L (other) SLWCRPPMVKLVCPADNLRAEGLECTKTCQNYDLECMSMGCVLGCLCPPGMVRHENRCVALERCPCFHQGKEYAPGETVKIGCNTCVCRDRKWNCTDHVCDATCSTIGMAHYLTFDGLKYLFPGECQYVLVQDYCGSNPGTFRILVGNKGCSHPSVKCKKRVTILVEGGEIELFDGEVNVKRPMKDETHFEVVESGRYIILLLGKALSVVWDRHLSISVVLKQTYQEKVCGLCGNFDGIQNNDLTSSNLQVEEDPVDFGNSWKVSSQCADTRKVPLDSSPATCHNNIMKQTMVDSSCRILTSDVFQDCNKLVDPEPYLDVCIYDTCSCESIGDCACFCDTIAAYAHVCAQHGKVVTWRTATLCPQSCEERNLRENGYECEWRYNSCAPACQVTCQHPEPLACPVQCVEGCHAHCPPGKILDELLQTCVDPEDCPVCEVAGRRFASGKKVTLNPSDPEHCQICHCDVVNLTCEACQEPGGLVVPPTDAPVSPTTLYVEDISEPPLHDFHHHHHHHH |
|  | 1.29 nM | 0.0107 s⁻¹ | 8.28e+06 M⁻¹ s⁻¹ | Hu-vWF[764-1270]-8His S766W-S806R (other) SLWCRPPMVKLVCPADNLRAEGLECTKTCQNYDLECMSMGCVRGCLCPPGMVRHENRCVALERCPCFHQGKEYAPGETVKIGCNTCVCRDRKWNCTDHVCDATCSTIGMAHYLTFDGLKYLFPGECQYVLVQDYCGSNPGTFRILVGNKGCSHPSVKCKKRVTILVEGGEIELFDGEVNVKRPMKDETHFEVVESGRYIILLLGKALSVVWDRHLSISVVLKQTYQEKVCGLCGNFDGIQNNDLTSSNLQVEEDPVDFGNSWKVSSQCADTRKVPLDSSPATCHNNIMKQTMVDSSCRILTSDVFQDCNKLVDPEPYLDVCIYDTCSCESIGDCACFCDTIAAYAHVCAQHGKVVTWRTATLCPQSCEERNLRENGYECEWRYNSCAPACQVTCQHPEPLACPVQCVEGCHAHCPPGKILDELLQTCVDPEDCPVCEVAGRRFASGKKVTLNPSDPEHCQICHCDVVNLTCEACQEPGGLVVPPTDAPVSPTTLYVEDISEPPLHDFHHHHHHHH |
|  | 0.125 nM | 0.000654 s⁻¹ | 5.25e+06 M⁻¹ s⁻¹ | Hu-vWF[764-1270]-8His S766W-S806T (other) SLWCRPPMVKLVCPADNLRAEGLECTKTCQNYDLECMSMGCVTGCLCPPGMVRHENRCVALERCPCFHQGKEYAPGETVKIGCNTCVCRDRKWNCTDHVCDATCSTIGMAHYLTFDGLKYLFPGECQYVLVQDYCGSNPGTFRILVGNKGCSHPSVKCKKRVTILVEGGEIELFDGEVNVKRPMKDETHFEVVESGRYIILLLGKALSVVWDRHLSISVVLKQTYQEKVCGLCGNFDGIQNNDLTSSNLQVEEDPVDFGNSWKVSSQCADTRKVPLDSSPATCHNNIMKQTMVDSSCRILTSDVFQDCNKLVDPEPYLDVCIYDTCSCESIGDCACFCDTIAAYAHVCAQHGKVVTWRTATLCPQSCEERNLRENGYECEWRYNSCAPACQVTCQHPEPLACPVQCVEGCHAHCPPGKILDELLQTCVDPEDCPVCEVAGRRFASGKKVTLNPSDPEHCQICHCDVVNLTCEACQEPGGLVVPPTDAPVSPTTLYVEDISEPPLHDFHHHHHHHH |
|  | 0.149 nM | 0.000619 s⁻¹ | 4.17e+06 M⁻¹ s⁻¹ | Hu-vWF[764-1270]-8His S766W-S806V (other) SLWCRPPMVKLVCPADNLRAEGLECTKTCQNYDLECMSMGCVVGCLCPPGMVRHENRCVALERCPCFHQGKEYAPGETVKIGCNTCVCRDRKWNCTDHVCDATCSTIGMAHYLTFDGLKYLFPGECQYVLVQDYCGSNPGTFRILVGNKGCSHPSVKCKKRVTILVEGGEIELFDGEVNVKRPMKDETHFEVVESGRYIILLLGKALSVVWDRHLSISVVLKQTYQEKVCGLCGNFDGIQNNDLTSSNLQVEEDPVDFGNSWKVSSQCADTRKVPLDSSPATCHNNIMKQTMVDSSCRILTSDVFQDCNKLVDPEPYLDVCIYDTCSCESIGDCACFCDTIAAYAHVCAQHGKVVTWRTATLCPQSCEERNLRENGYECEWRYNSCAPACQVTCQHPEPLACPVQCVEGCHAHCPPGKILDELLQTCVDPEDCPVCEVAGRRFASGKKVTLNPSDPEHCQICHCDVVNLTCEACQEPGGLVVPPTDAPVSPTTLYVEDISEPPLHDFHHHHHHHH |
